The subject of this data set is Escherichia coli TOP10. Description: shrunken log2 fold change of peptide-encoding DNA abundance (4.5 h post-induction vs induction); higher = less antimicrobial activity (less host growth inhibition). The note with it: time post-induction: 4.5 h; library: site-saturation at positions 5, 18, 19, 20.
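Further: peptides expressed intracellularly from a pBAD plasmid library in pooled LB shake-flask culture, induced with 0.3% L-arabinose, DNA abundance read by NGS, three biological replicates, DESeq2 with apeglm shrinkage.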

With RRIRCRPPRLPRPRPRPKGNPRP, the “shrunken log2 fold change” value is -0.31. With RRIRVRPPRLPRPRPRPVCGPRP the figure was 0.211; with RRIRERPPRLPRPRPRPTVFPRP, 0.0505. Turning to RRIRRRPPRLPRPRPRPVNCPRP, the “shrunken log2 fold change” value was determined as 0.148. RRIRIRPPRLPRPRPRPTTFPRP: the “shrunken log2 fold change” value is -0.688. Turning to RRIRSRPPRLPRPRPRPPWHPRP, the “shrunken log2 fold change” value is 0.0809. As for RRIRIRPPRLPRPRPRPGIIPRP, the “shrunken log2 fold change” value was -0.0859. With RRIRFRPPRLPRPRPRPQEPPRP, the “shrunken log2 fold change” value was 0.436.

As for RRIRPRPPRLPRPRPRPFVTPRP, the “shrunken log2 fold change” value is -0.102. On to RRIRYRPPRLPRPRPRPAMNPRP, for which the “shrunken log2 fold change” value was -0.796. Turning to RRIRLRPPRLPRPRPRPIGHPRP, the “shrunken log2 fold change” value was -0.212.

Turning to RRIRVRPPRLPRPRPRPINEPRP, the “shrunken log2 fold change” value is -0.3. On to RRIRPRPPRLPRPRPRPQRRPRP, for which the “shrunken log2 fold change” value is -0.359. As to RRIRARPPRLPRPRPRPFPWPRP, the “shrunken log2 fold change” value is 0.477.

Consider RRIRTRPPRLPRPRPRPGFVPRP, for which the “shrunken log2 fold change” value is -0.0603.

As to RRIRHRPPRLPRPRPRPIQHPRP, the “shrunken log2 fold change” value was -0.237. With RRIRYRPPRLPRPRPRPRNPPRP the figure was 0.0734; with RRIRERPPRLPRPRPRPMNAPRP, -0.259; with RRIRRRPPRLPRPRPRPWNGPRP, -0.346. As for RRIRERPPRLPRPRPRPKTEPRP, the “shrunken log2 fold change” value is -0.0578. The same measure for RRIRKRPPRLPRPRPRPKHQPRP: 0.132. With RRIRFRPPRLPRPRPRPDLIPRP the figure was -0.0121; with RRIRHRPPRLPRPRPRPQSKPRP, -0.342. With RRIRHRPPRLPRPRPRPPQVPRP the figure was -0.0255; with RRIRMRPPRLPRPRPRPPYRPRP, 0.00408; with RRIRKRPPRLPRPRPRPVGWPRP, 0.897. Take RRIRYRPPRLPRPRPRPAWSPRP: the “shrunken log2 fold change” value is -0.292. With RRIRNRPPRLPRPRPRPNCIPRP, the “shrunken log2 fold change” value was -0.679. With RRIRGRPPRLPRPRPRPGDRPRP the figure was 1; with RRIRVRPPRLPRPRPRPKSEPRP, 0.0185; with RRIRKRPPRLPRPRPRPAVCPRP, 0.356. As for RRIRCRPPRLPRPRPRPCNDPRP, the “shrunken log2 fold change” value was -0.173. With RRIRKRPPRLPRPRPRPTVDPRP the figure was -0.108; with RRIRERPPRLPRPRPRPTITPRP, -0.598. With RRIRMRPPRLPRPRPRPLTNPRP the figure was 0.0401; with RRIRFRPPRLPRPRPRPLTEPRP, -0.331.

With RRIRERPPRLPRPRPRPAKSPRP, the “shrunken log2 fold change” value was determined as 0.0676.

For RRIRQRPPRLPRPRPRPVIMPRP, the “shrunken log2 fold change” value is -0.348. RRIRSRPPRLPRPRPRPTTWPRP: the “shrunken log2 fold change” value amounted to 0.053. The same measure for RRIRRRPPRLPRPRPRPVSIPRP: -0.0599; for RRIRCRPPRLPRPRPRPNMLPRP: -0.398. The same measure for RRIRSRPPRLPRPRPRPDIPPRP: -0.178.

Consider RRIRRRPPRLPRPRPRPFGCPRP, for which the “shrunken log2 fold change” value worked out at 0.222.

On to RRIRRRPPRLPRPRPRPDYAPRP, for which the “shrunken log2 fold change” value came out at 0.559. The same measure for RRIRNRPPRLPRPRPRPWASPRP: 0.00581. With RRIRHRPPRLPRPRPRPKLLPRP the figure was -0.0097; with RRIRQRPPRLPRPRPRPTVCPRP, 0.0669. With RRIRWRPPRLPRPRPRPWRFPRP the figure was 0.0309. Consider RRIRFRPPRLPRPRPRPIARPRP, for which the “shrunken log2 fold change” value stood at 0.00909.

Turning to RRIRRRPPRLPRPRPRPRYLPRP, the “shrunken log2 fold change” value was -0.0373. As for RRIRDRPPRLPRPRPRPWDDPRP, the “shrunken log2 fold change” value is -0.249. In the case of RRIRMRPPRLPRPRPRPEPVPRP, the “shrunken log2 fold change” value came to 1.01. Consider RRIRDRPPRLPRPRPRPWCEPRP, for which the “shrunken log2 fold change” value was -0.093. For the sequence RRIRHRPPRLPRPRPRPEGQPRP, the “shrunken log2 fold change” value was -0.0936. The same measure for RRIRDRPPRLPRPRPRPGNPPRP: -5.31e-05; for RRIRKRPPRLPRPRPRPLENPRP: 0.228.

For RRIRKRPPRLPRPRPRPTMPPRP, the “shrunken log2 fold change” value was 0.282.

Take RRIRARPPRLPRPRPRPVSYPRP: the “shrunken log2 fold change” value is -0.133. The same measure for RRIRKRPPRLPRPRPRPLMQPRP: -0.134; for RRIRMRPPRLPRPRPRPRCVPRP: 0.581. The same measure for RRIRPRPPRLPRPRPRPDLGPRP: 0.215; for RRIRCRPPRLPRPRPRPMSQPRP: -0.0148.

For the sequence RRIRERPPRLPRPRPRPQREPRP, the “shrunken log2 fold change” value is 0.0255. With RRIRCRPPRLPRPRPRPSKHPRP the figure was -0.553; with RRIRTRPPRLPRPRPRPIIWPRP, -0.0836.

As to RRIRPRPPRLPRPRPRPDFKPRP, the “shrunken log2 fold change” value is -0.464.

In the case of RRIRQRPPRLPRPRPRPCGCPRP, the “shrunken log2 fold change” value was 0.164. As for RRIRNRPPRLPRPRPRPWWIPRP, the “shrunken log2 fold change” value was -0.00145. As for RRIRNRPPRLPRPRPRPSFAPRP, the “shrunken log2 fold change” value amounted to 0.00213. The same measure for RRIRLRPPRLPRPRPRPDCAPRP: 0.239; for RRIRQRPPRLPRPRPRPSALPRP: -0.0016. The same measure for RRIRARPPRLPRPRPRPRWDPRP: 0.768; for RRIRTRPPRLPRPRPRPNSIPRP: -0.0867; for RRIRNRPPRLPRPRPRPCERPRP: -0.00992.

As for RRIRARPPRLPRPRPRPSMIPRP, the “shrunken log2 fold change” value was -0.128. For the sequence RRIRKRPPRLPRPRPRPYMGPRP, the “shrunken log2 fold change” value is -0.00674. The same measure for RRIRPRPPRLPRPRPRPDMFPRP: 2.58; for RRIRIRPPRLPRPRPRPSQLPRP: -0.385; for RRIRERPPRLPRPRPRPQFMPRP: 0.0848. For the sequence RRIRTRPPRLPRPRPRPWNPPRP, the “shrunken log2 fold change” value amounted to 0.0296. The same measure for RRIRDRPPRLPRPRPRPECWPRP: 1.84; for RRIRVRPPRLPRPRPRPRFLPRP: -0.247. With RRIRFRPPRLPRPRPRPHVFPRP, the “shrunken log2 fold change” value was -0.136. Regarding RRIRVRPPRLPRPRPRPSKQPRP, the “shrunken log2 fold change” value was -0.201. The same measure for RRIRARPPRLPRPRPRPRVDPRP: 0.419; for RRIRMRPPRLPRPRPRPLDRPRP: 0.816; for RRIRKRPPRLPRPRPRPGRLPRP: 0.299.

With RRIRMRPPRLPRPRPRPVPLPRP, the “shrunken log2 fold change” value is -0.0409. For the sequence RRIRCRPPRLPRPRPRPRQEPRP, the “shrunken log2 fold change” value worked out at 0.121. RRIRPRPPRLPRPRPRPHKDPRP: the “shrunken log2 fold change” value is -0.339. Take RRIRLRPPRLPRPRPRPNQIPRP: the “shrunken log2 fold change” value was -0.253.

RRIRTRPPRLPRPRPRPIWFPRP: the “shrunken log2 fold change” value is -0.033. The same measure for RRIRPRPPRLPRPRPRPDQHPRP: -0.0313; for RRIRFRPPRLPRPRPRPVCFPRP: -0.151. The same measure for RRIRFRPPRLPRPRPRPSQAPRP: -0.0595; for RRIRCRPPRLPRPRPRPTPQPRP: 0.794; for RRIRFRPPRLPRPRPRPQKVPRP: -0.194.

In the case of RRIRARPPRLPRPRPRPIDIPRP, the “shrunken log2 fold change” value worked out at 0.0327.

As for RRIRARPPRLPRPRPRPWLPPRP, the “shrunken log2 fold change” value is 0.197. With RRIRERPPRLPRPRPRPWAFPRP the figure was -0.165; with RRIRGRPPRLPRPRPRPAHLPRP, 0.768.

RRIRLRPPRLPRPRPRPMFCPRP: the “shrunken log2 fold change” value was -0.752. For RRIRQRPPRLPRPRPRPEPPPRP, the “shrunken log2 fold change” value turned out to be 0.488. The same measure for RRIRSRPPRLPRPRPRPGQEPRP: -0.0151; for RRIRERPPRLPRPRPRPKYDPRP: -0.0434. The same measure for RRIRERPPRLPRPRPRPKSCPRP: -0.00876. With RRIRYRPPRLPRPRPRPWNAPRP the figure was -0.397; with RRIRERPPRLPRPRPRPQTAPRP, -0.0922; with RRIRERPPRLPRPRPRPDIVPRP, -0.158. Consider RRIRSRPPRLPRPRPRPHWGPRP, for which the “shrunken log2 fold change” value is -0.107. As for RRIRLRPPRLPRPRPRPIWLPRP, the “shrunken log2 fold change” value was found to be 0.132. With RRIRWRPPRLPRPRPRPYRKPRP the figure was 0.0527; with RRIRNRPPRLPRPRPRPISEPRP, 0.00895; with RRIRLRPPRLPRPRPRPDWCPRP, 0.0707. As for RRIRRRPPRLPRPRPRPWDFPRP, the “shrunken log2 fold change” value worked out at 0.0406. On to RRIRPRPPRLPRPRPRPQNFPRP, for which the “shrunken log2 fold change” value is -0.0849. Take RRIRMRPPRLPRPRPRPECRPRP: the “shrunken log2 fold change” value was determined as 2.38. The same measure for RRIRCRPPRLPRPRPRPFQKPRP: 0.0129; for RRIRVRPPRLPRPRPRPHSAPRP: -0.119; for RRIRVRPPRLPRPRPRPQRSPRP: -0.431. Turning to RRIRIRPPRLPRPRPRPLWFPRP, the “shrunken log2 fold change” value is -0.257. Turning to RRIRIRPPRLPRPRPRPSMKPRP, the “shrunken log2 fold change” value was -0.56. As for RRIRKRPPRLPRPRPRPDKQPRP, the “shrunken log2 fold change” value came to 0.0638. As for RRIRFRPPRLPRPRPRPANVPRP, the “shrunken log2 fold change” value was -0.246. The same measure for RRIRGRPPRLPRPRPRPLTCPRP: 0.416.
